Laboratory results reported in PMC2518714.

Molecular target: T1, CD9 (wild type) (human (endogenous in PC3)), P21926
T1 chain: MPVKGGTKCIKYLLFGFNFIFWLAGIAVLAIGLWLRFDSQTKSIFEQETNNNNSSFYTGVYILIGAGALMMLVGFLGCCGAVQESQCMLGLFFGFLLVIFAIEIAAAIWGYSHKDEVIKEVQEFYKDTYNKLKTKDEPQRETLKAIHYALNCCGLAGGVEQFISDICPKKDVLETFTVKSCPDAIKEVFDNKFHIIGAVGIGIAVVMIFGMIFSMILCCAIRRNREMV
Test: single-molecule codiffusion
Settings: remark: other sources report otherwise

- percent of Brownian and mixed trajectories with codiffusing molecules: 15%
- percent of possible pairs dynamically colocalized: 5%
B1: CD9 (wild type), P21926 1-228 (natural protein)
chain: T1 chain
modifications: here or on the partner: palmitoylated (sites not given); palmitoylated (sites not given)
